This is an account of results in patent US20080009025A1 (published 2008).

In the test the target is T1, PIFtide (24 residue synthetic peptide encompassing the PDK1 binding site on PIF) (human).
T1 construct: also called wild type PIF peptide; 24 residue PIF peptide
T1 peptide: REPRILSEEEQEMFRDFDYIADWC
The test is described as follows: method not stated.

B1: GST-PDK1[I119A] (enzyme, not shown: a dimerising Fc or GST; small tags and cut ends)
chain: MARTTSQLYDAVPIQSSVVLCSCPSPSMVRTQTESSTPPGIPGGSRQGPAMDGTAAEPRPGAGSLQHAQPPPQPRKKRPEDFKFGKILGEGSFSTVVLARELATSREYAIKILEKRHIAKENKVPYVTRERDVMSRLDHPFFVKLYFTFQDDEKLYFGLSYAKNGELLKYIRKIGSFDETCTRFYTAEIVSALEYLHGKGIIHRDLKPENILLNEDMHIQITDFGTAKVLSPESKQARANSFVGTAQYVSPELLTEKSACKSSDLWALGCIIYQLVAGLPPFRAGNEYLIFQKIIKLEYDFPEKFFPKARDLVEKLLVLDATKRLGCEEMEGYGPLKAHPFFESVTWENLHQQTPPKLTAYLPAMSEDDEDCYGNYDNLLSQFGCMQVSSSSSSHSLSASDTGLPQRSGSNIEQYIHDLDSNSFELDLQFSEDEKRLLLEKQAGGNPWHQFVENNLILKMGPVDKRKGLFARRRQLLLTEGPHLYYVDPVNKVLKGEIPWSQELRPEAKNFKTFFVHTPNRTYYLMDPSGNAHKWCRKIQEVWRQRYQSHPDAAVQ
As to B1, the “fold decrease in affinity (against wild type PDK1)” value was ~10 fold.
